The source of these data is article PMC11574045, “A cofactor-induced repressive type of transcription factor condensation can be induced by synthetic peptides to suppress tumorigenesis” (The EMBO Journal, 2024).

The subject of the experiment is HEK293FT cells transfected with TF library. Briefly: Screening of TF condensates based on fluorescent puncta. It is filed as cell-based. To be noted: Figure 1B numerical data; TF library screen, one value per transcriptional factor. An outline of the steps: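 Puncta scoring used automated confocal imaging of fifty random fields per well, after anti-Flag or anti-GAL4 immunofluorescence (Alexa 488) in PFA-fixed cells. HEK293FT cells carried TF library plasmids delivered with PEI (1.6 μg/ml DNA). At 60 h they were switched for 12 h to glucose-containing or glucose-free medium.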

B1: IRF1 (protein, UniProt P10914 1-325, looked up)
Interferon regulatory factor 1: MPITRMRMRPWLEMQINSNQIPGLIWINKEEMIFQIPWKHAAKHGWDINKDACLFRSWAIHTGRYKAGEKEPDPKTWKANFRCAMNSLPDIEEVKDQSRNKGSSAVRVYRMLPPLTKNQRKERKSKSSRDAKSKAKRKSCGDSSPDTFSDGLSSSTLPDDHSSYTVPGYMQDLEVEQALTPALSPCAVSSTLPDWHIPVEVVPDSTSDLYNFQVSPMPSTSEATTDEDEEGKLPEDIMKLLEQSEWQPTNVDGKGYLLNEPGVQPTSVYGDFSCKEEPEIDSPGGDIGLSLQRVFTDLKNMDATWLDSLLTPVRLPSIQAIPCAP
On to B1, for which the “Z score of condensed fraction” value is reported as -0.5727.

B2: ARRB1 (protein, UniProt P49407 1-418, looked up)
Beta-arrestin-1: MGDKGTRVFKKASPNGKLTVYLGKRDFVDHIDLVDPVDGVVLVDPEYLKERRVYVTLTCAFRYGREDLDVLGLTFRKDLFVANVQSFPPAPEDKKPLTRLQERLIKKLGEHAYPFTFEIPPNLPCSVTLQPGPEDTGKACGVDYEVKAFCAENLEEKIHKRNSVRLVIRKVQYAPERPGPQPTAETTRQFLMSDKPLHLEASLDKEIYYHGEPISVNVHVTNNTNKTVKKIKISVRQYADICLFNTAQYKCPVAMEEADDTVAPSSTFCKVYTLTPFLANNREKRGLALDGKLKHEDTNLASSTLLREGANREILGIIVSYKVKVKLVVSRGGLLGDLASSDVAVELPFTLMHPKPKEEPPHREVPENETPVDTNLIELDTNDDDIVFEDFARQRLKGMKDDKEEEEDGTGSPQLNNR
Turning to B2, the “Z score of condensed fraction” value is on record as 0.4258.

B3: JADE2 (protein, UniProt Q9NQC1 1-790, looked up)
E3 ubiquitin-protein ligase …: MEEKRRKYSISSDNSDTTDSHATSTSASRCSKLPSSTKSGWPRQNEKKPSEVFRTDLITAMKIPDSYQLSPDDYYILADPWRQEWEKGVQVPAGAEAIPEPVVRILPPLEGPPAQASPSSTMLGEGSQPDWPGGSRYDLDEIDAYWLELINSELKEMERPELDELTLERVLEELETLCHQNMARAIETQEGLGIEYDEDVVCDVCRSPEGEDGNEMVFCDKCNVCVHQACYGILKVPTGSWLCRTCALGVQPKCLLCPKRGGALKPTRSGTKWVHVSCALWIPEVSIGCPEKMEPITKISHIPASRWALSCSLCKECTGTCIQCSMPSCVTAFHVTCAFDHGLEMRTILADNDEVKFKSFCQEHSDGGPRNEPTSEPTEPSQAGEDLEKVTLRKQRLQQLEEDFYELVEPAEVAERLDLAEALVDFIYQYWKLKRKANANQPLLTPKTDEVDNLAQQEQDVLYRRLKLFTHLRQDLERVRNLCYMVTRRERTKHAICKLQEQIFHLQMKLIEQDLCRGLSTSFPIDGTFFNSWLAQSVQITAENMAMSEWPLNNGHREDPAPGLLSEELLQDEETLLSFMRDPSLRPGDPARKARGRTRLPAKKKPPPPPPQDGPGSRTTPDKAPKKTWGQDAGSGKGGQGPPTRKPPRRTSSHLPSSPAAGDCPILATPESPPPLAPETPDEAASVAADSDVQVPGPAASPKPLGRLRPPRESKVTRRLPGARPDAGMGPPSAVAERPKVSLHFDTETDGYFSDGEMSDSDVEAEDGGVQRGPREAGAEEVVRMGVLAS
As for B3, the “Z score of condensed fraction” value is -1.0906.

B4: KLRG1 (protein, UniProt Q96E93 1-195, looked up)
Killer cell lectin-like …: MTDSVIYSMLELPTATQAQNDYGPQQKSSSSRPSCSCLVAIALGLLTAVLLSVLLYQWILCQGSNYSTCASCPSCPDRWMKYGNHCYYFSVEEKDWNSSLEFCLARDSHLLVITDNQEMSLLQVFLSEAFCWIGLRNNSGWRWEDGSPLNFSRISSNSFVQTCGAINKNGLQASSCEVPLHWVCKKCPFADQALF
Turning to B4, the “Z score of condensed fraction” value is recorded as 2.376.

B5: IRF8 (protein, UniProt Q02556 1-426, looked up)
Interferon regulatory factor 8: MCDRNGGRRLRQWLIEQIDSSMYPGLIWENEEKSMFRIPWKHAGKQDYNQEVDASIFKAWAVFKGKFKEGDKAEPATWKTRLRCALNKSPDFEEVTDRSQLDISEPYKVYRIVPEEEQKCKLGVATAGCVNEVTEMECGRSEIDELIKEPSVDDYMGMIKRSPSPPEACRSQLLPDWWAQQPSTGVPLVTGYTTYDAHHSAFSQMVISFYYGGKLVGQATTTCPEGCRLSLSQPGLPGTKLYGPEGLELVRFPPADAIPSERQRQVTRKLFGHLERGVLLHSSRQGVFVKRLCQGRVFCSGNAVVCKGRPNKLERDEVVQVFDTSQFFRELQQFYNSQGRLPDGRVVLCFGEEFPDMAPLRSKLILVQIEQLYVRQLAEEAGKSCGAGSVMQAPEEPPPDQVFRMFPDICASHQRSFFRENQQITV
As for B5, the “Z score of condensed fraction” value was 2.123.

B6: IRF3 (protein, UniProt Q14653 1-427, looked up)
Interferon regulatory factor 3: MGTPKPRILPWLVSQLDLGQLEGVAWVNKSRTRFRIPWKHGLRQDAQQEDFGIFQAWAEATGAYVPGRDKPDLPTWKRNFRSALNRKEGLRLAEDRSKDPHDPHKIYEFVNSGVGDFSQPDTSPDTNGGGSTSDTQEDILDELLGNMVLAPLPDPGPPSLAVAPEPCPQPLRSPSLDNPTPFPNLGPSENPLKRLLVPGEEWEFEVTAFYRGRQVFQQTISCPEGLRLVGSEVGDRTLPGWPVTLPDPGMSLTDRGVMSYVRHVLSCLGGGLALWRAGQWLWAQRLGHCHTYWAVSEELLPNSGHGPDGEVPKDKEGGVFDLGPFIVDLITFTEGSGRSPRYALWFCVGESWPQDQPWTKRLVMVKVVPTCLRALVEMARVGGASSLENTVDLHISNSHPLSLTSDQYKAYLQDLVEGMDFQGPGES
Turning to B6, the “Z score of condensed fraction” value came out at 1.843.

B7: JDP2 (protein, UniProt P97875 1-163, looked up)
Jun dimerization protein 2: MMPGQIPDPSVTAGSLPGLGPLTGLPSSALTTEELKYADIRNIGAMIAPLHFLEVKLGKRPQPVKSELDEEEERRKRRREKNKVAAARCRNKKKERTEFLQRESERLELMNAELKTQIEELKLERQQLILMLNRHRPTCIVRTDSVRTPESEGNPLLEQLDKK
Take B7: the “Z score of condensed fraction” value is -1.182.

B8: IRF2 (protein, UniProt P14316 1-349, looked up)
Interferon regulatory factor 2: MPVERMRMRPWLEEQINSNTIPGLKWLNKEKKIFQIPWMHAARHGWDVEKDAPLFRNWAIHTGKHQPGVDKPDPKTWKANFRCAMNSLPDIEEVKDKSIKKGNNAFRVYRMLPLSERPSKKGKKPKTEKEDKVKHIKQEPVESSLGLSNGVSDLSPEYAVLTSTIKNEVDSTVNIIVVGQSHLDSNIENQEIVTNPPDICQVVEVTTESDEQPVSMSELYPLQISPVSSYAESETTDSVPSDEESAEGRPHWRKRNIEGKQYLSNMGTRGSYLLPGMASFVTSNKPDLQVTIKEESNPVPYNSSWPPFQDLPLSSSMTPASSSSRPDRETRASVIKKTSDITQARVKSC
As to B8, the “Z score of condensed fraction” value is listed as -0.3538.

B9: JUNB (protein, UniProt P17275 1-347, looked up)
Transcription factor JunB: MCTKMEQPFYHDDSYTATGYGRAPGGLSLHDYKLLKPSLAVNLADPYRSLKAPGARGPGPEGGGGGSYFSGQGSDTGASLKLASSELERLIVPNSNGVITTTPTPPGQYFYPRGGGSGGGAGGAGGGVTEEQEGFADGFVKALDDLHKMNHVTPPNVSLGATGGPPAGPGGVYAGPEPPPVYTNLSSYSPASASSGGAGAAVGTGSSYPTTTISYLPHAPPFAGGHPAQLGLGRGASTFKEEPQTVPEARSRDATPPVSPINMEDQERIKVERKRLRNRLAATKCRKRKLERIARLEDKVKTLKAENAGLSSTAGLLREQVAQLKQKVMTHVSNGCQLLLGVKGHAF
Consider B9, for which the “Z score of condensed fraction” value is -0.9915.

B10: IRF5 (protein, UniProt Q13568 1-498, looked up)
Interferon regulatory factor 5: MNQSIPVAPTPPRRVRLKPWLVAQVNSCQYPGLQWVNGEKKLFCIPWRHATRHGPSQDGDNTIFKAWAKETGKYTEGVDEADPAKWKANLRCALNKSRDFRLIYDGPRDMPPQPYKIYEVCSNGPAPTDSQPPEDYSFGAGEEEEEEEELQRMLPSLSLTEDVKWPPTLQPPTLRPPTLQPPTLQPPVVLGPPAPDPSPLAPPPGNPAGFRELLSEVLEPGPLPASLPPAGEQLLPDLLISPHMLPLTDLEIKFQYRGRPPRALTISNPHGCRLFYSQLEATQEQVELFGPISLEQVRFPSPEDIPSDKQRFYTNQLLDVLDRGLILQLQGQDLYAIRLCQCKVFWSGPCASAHDSCPNPIQREVKTKLFSLEHFLNELILFQKGQTNTPPPFEIFFCFGEEWPDRKPREKKLITVQVVPVAARLLLEMFSGELSWSADSIRLQISNPDLKDRMVEQFKELHHIWQSQQRLQPVAQAPPGAGLGVGQGPWPMHPAGMQ
Regarding B10, the “Z score of condensed fraction” value was -0.5098.

B11: JUP (protein, UniProt P14923 1-745, looked up)
Junction plakoglobin: MEVMNLMEQPIKVTEWQQTYTYDSGIHSGANTCVPSVSSKGIMEEDEACGRQYTLKKTTTYTQGVPPSQGDLEYQMSTTARAKRVREAMCPGVSGEDSSLLLATQVEGQATNLQRLAEPSQLLKSAIVHLINYQDDAELATRALPELTKLLNDEDPVVVTKAAMIVNQLSKKEASRRALMGSPQLVAAVVRTMQNTSDLDTARCTTSILHNLSHHREGLLAIFKSGGIPALVRMLSSPVESVLFYAITTLHNLLLYQEGAKMAVRLADGLQKMVPLLNKNNPKFLAITTDCLQLLAYGNQESKLIILANGGPQALVQIMRNYSYEKLLWTTSRVLKVLSVCPSNKPAIVEAGGMQALGKHLTSNSPRLVQNCLWTLRNLSDVATKQEGLESVLKILVNQLSVDDVNVLTCATGTLSNLTCNNSKNKTLVTQNSGVEALIHAILRAGDKDDITEPAVCALRHLTSRHPEAEMAQNSVRLNYGIPAIVKLLNQPNQWPLVKATIGLIRNLALCPANHAPLQEAAVIPRLVQLLVKAHQDAQRHVAAGTQQPYTDGVRMEEIVEGCTGALHILARDPMNRMEIFRLNTIPLFVQLLYSSVENIQRVAAGVLCELAQDKEAADAIDAEGASAPLMELLHSRNEGTATYAAAVLFRISEDKNPDYRKRVSVELTNSLFKHDPAAWEAAQSMIPINEPYGDDMDATYRPMYSSDVPLDPLEMHMDMDGDYPIDTYSDGLRPPYPTADHMLA
B11: the “Z score of condensed fraction” value was -0.6246.

B12: IRF9 (protein, UniProt Q00978 1-393, looked up)
Interferon regulatory factor 9: MASGRARCTRKLRNWVVEQVESGQFPGVCWDDTAKTMFRIPWKHAGKQDFREDQDAAFFKAWAIFKGKYKEGDTGGPAVWKTRLRCALNKSSEFKEVPERGRMDVAEPYKVYQLLPPGIVSGQPGTQKVPSKRQHSSVSSERKEEEDAMQNCTLSPSVLQDSLNNEEEGASGGAVHSDIGSSSSSSSPEPQEVTDTTEAPFQGDQRSLEFLLPPEPDYSLLLTFIYNGRVVGEAQVQSLDCRLVAEPSGSESSMEQVLFPKPGPLEPTQRLLSQLERGILVASNPRGLFVQRLCPIPISWNAPQAPPGPGPHLLPSNECVELFRTAYFCRDLVRYFQGLGPPPKFQVTLNFWEESHGSSHTPQNLITVKMEQAFARYLLEQTPEQQAAILSLV
Regarding B12, the “Z score of condensed fraction” value is 1.05.
